Biological target: IFT140 with C-terminal TEV site and Strep-tag II (IFT140^Strep) (human, UniProt Q96RY7 1-1462)
Experiment: pull-down

IFT140 with C-terminal TEV site and Strep-tag II (IFT140^Strep), sequence (Q96RY7 whole entry): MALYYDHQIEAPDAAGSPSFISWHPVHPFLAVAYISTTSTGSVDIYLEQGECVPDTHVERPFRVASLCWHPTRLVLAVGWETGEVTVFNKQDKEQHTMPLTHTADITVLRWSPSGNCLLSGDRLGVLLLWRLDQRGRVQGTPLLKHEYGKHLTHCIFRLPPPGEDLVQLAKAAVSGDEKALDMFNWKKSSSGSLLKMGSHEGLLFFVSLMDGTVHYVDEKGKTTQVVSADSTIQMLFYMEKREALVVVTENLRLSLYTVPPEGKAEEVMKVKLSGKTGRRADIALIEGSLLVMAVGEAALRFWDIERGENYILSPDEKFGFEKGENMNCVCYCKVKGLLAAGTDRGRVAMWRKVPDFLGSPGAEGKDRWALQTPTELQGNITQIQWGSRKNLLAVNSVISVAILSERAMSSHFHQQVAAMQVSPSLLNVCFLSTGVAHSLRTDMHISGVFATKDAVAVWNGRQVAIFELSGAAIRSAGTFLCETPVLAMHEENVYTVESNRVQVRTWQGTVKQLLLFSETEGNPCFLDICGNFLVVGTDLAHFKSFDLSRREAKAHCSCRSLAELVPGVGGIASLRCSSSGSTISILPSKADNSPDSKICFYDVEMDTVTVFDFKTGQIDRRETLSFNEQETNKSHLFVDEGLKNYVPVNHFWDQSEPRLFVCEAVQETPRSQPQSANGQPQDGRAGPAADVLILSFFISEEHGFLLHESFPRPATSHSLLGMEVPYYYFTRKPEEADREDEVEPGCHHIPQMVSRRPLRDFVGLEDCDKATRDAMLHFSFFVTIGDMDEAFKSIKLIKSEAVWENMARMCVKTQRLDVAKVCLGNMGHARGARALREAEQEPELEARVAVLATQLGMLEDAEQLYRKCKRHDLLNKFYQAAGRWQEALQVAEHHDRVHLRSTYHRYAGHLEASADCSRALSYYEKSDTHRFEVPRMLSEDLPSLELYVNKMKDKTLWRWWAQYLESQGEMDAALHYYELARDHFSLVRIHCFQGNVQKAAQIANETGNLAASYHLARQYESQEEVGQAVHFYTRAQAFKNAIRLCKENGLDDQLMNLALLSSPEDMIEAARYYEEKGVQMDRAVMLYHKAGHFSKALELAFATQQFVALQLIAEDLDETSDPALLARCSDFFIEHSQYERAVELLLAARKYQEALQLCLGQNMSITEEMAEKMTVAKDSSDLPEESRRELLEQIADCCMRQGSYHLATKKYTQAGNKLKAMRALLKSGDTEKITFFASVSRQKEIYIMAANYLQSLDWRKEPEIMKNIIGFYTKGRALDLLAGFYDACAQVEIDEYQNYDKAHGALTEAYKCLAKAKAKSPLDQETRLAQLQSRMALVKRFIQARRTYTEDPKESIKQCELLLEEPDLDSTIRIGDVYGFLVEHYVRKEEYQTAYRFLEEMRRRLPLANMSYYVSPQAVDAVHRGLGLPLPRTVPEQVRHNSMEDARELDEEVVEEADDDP

binding result: binds
B1: IFT144 with C-terminal TEV site and FLAG tag (IFT144^FLAG) (natural protein, human, UniProt Q8NEZ3 1-1342, looked up)
chain: MKRIFSLLEKTWLGAPIQFAWQKTSGNYLAVTGADYIVKIFDRHGQKRSEINLPGNCVAMDWDKDGDVLAVIAEKSSCIYLWDANTNKTSQLDNGMRDQMSFLLWSKVGSFLAVGTVKGNLLIYNHQTSRKIPVLGKHTKRITCGCWNAENLLALGGEDKMITVSNQEGDTIRQTQVRSEPSNMQFFLMKMDDRTSAAESMISVVLGKKTLFFLNLNEPDNPADLEFQQDFGNIVCYNWYGDGRIMIGFSCGHFVVISTHTGELGQEIFQARNHKDNLTSIAVSQTLNKVATCGDNCIKIQDLVDLKDMYVILNLDEENKGLGTLSWTDDGQLLALSTQRGSLHVFLTKLPILGDACSTRIAYLTSLLEVTVANPVEGELPITVSVDVEPNFVAVGLYHLAVGMNNRAWFYVLGENAVKKLKDMEYLGTVASICLHSDYAAALFEGKVQLHLIESEILDAQEERETRLFPAVDDKCRILCHALTSDFLIYGTDTGVVQYFYIEDWQFVNDYRHPVSVKKIFPDPNGTRLVFIDEKSDGFVYCPVNDATYEIPDFSPTIKGVLWENWPMDKGVFIAYDDDKVYTYVFHKDTIQGAKVILAGSTKVPFAHKPLLLYNGELTCQTQSGKVNNIYLSTHGFLSNLKDTGPDELRPMLAQNLMLKRFSDAWEMCRILNDEAAWNELARACLHHMEVEFAIRVYRRIGNVGIVMSLEQIKGIEDYNLLAGHLAMFTNDYNLAQDLYLASSCPIAALEMRRDLQHWDSALQLAKHLAPDQIPFISKEYAIQLEFAGDYVNALAHYEKGITGDNKEHDEACLAGVAQMSIRMGDIRRGVNQALKHPSRVLKRDCGAILENMKQFSEAAQLYEKGLYYDKAASVYIRSKNWAKVGDLLPHVSSPKIHLQYAKAKEADGRYKEAVVAYENAKQWQSVIRIYLDHLNNPEKAVNIVRETQSLDGAKMVARFFLQLGDYGSAIQFLVMSKCNNEAFTLAQQHNKMEIYADIIGSEDTTNEDYQSIALYFEGEKRYLQAGKFFLLCGQYSRALKHFLKCPSSEDNVAIEMAIETVGQAKDELLTNQLIDHLLGENDGMPKDAKYLFRLYMALKQYREAAQTAIIIAREEQSAGNYRNAHDVLFSMYAELKSQKIKIPSEMATNLMILHSYILVKIHVKNGDHMKGARMLIRVANNISKFPSHIVPILTSTVIECHRAGLKNSAFSFAAMLMRPEYRSKIDAKYKKKIEGMVRRPDISEIEEATTPCPFCKFLLPECELLCPGCKNSIPYCIATGRHMLKDDWTVCPHCDFPALYSELKIMLNTESTCPMCSERLNAAQLKKISDCTQYLRTEEEL
